Laboratory results from the supplement of paper PMC9170038.

Test system: MS2 coat protein
Assay: apparent KD of MS2 coat protein; higher = weaker reporter binding
Conditions: Eterna round: R107
Procedure, shortened: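 Designed RNA switches were transcribed on-chip from Illumina sequencing clusters and titrated with SNAP-549-labelled MS2 coat protein in twofold steps from 0.7 or 1.5 nM up to 3 µM. Each step lasted 0.8–1.5 h at first and 10–20 min by the end, in 100 mM Tris-HCl pH 7.5, 80 mM KCl and 4 mM MgCl2, without or with constant ligand. Apparent KD is the median, for each design, of fits to normalised cluster binding curves.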

[1] = input ligand: theophylline 20 uM
[2] = input ligand: theophylline 2 mM
[3] = input ligand: tryptophan 2.4 mM

Sequence | apparent KD of MS2 coat protein (input ligand: arginine 13.2 mM) [nM] | apparent KD of MS2 coat protein (input ligand: none) [nM] | apparent KD of MS2 coat protein [1] [nM] | apparent KD of MS2 coat protein [2] [nM] | apparent KD of MS2 coat protein [3] [nM]
GGUUGAAACUGAAGGAGCGAGAUGACAACAUUGGGUCUAACAUGAGGAUCACCCAUGUAAUCUCAGGUAGGUCGCAGUGACCAAA [Exclusion Arginine B GF 14] | 38.1 | 50.2 | 41.5 | 46.7 | 43.1
UGGUACUAGGCGGCCGCCACUGGGAGAUACAUGAGGAUCACCCAUGUUUAAUGCCGAGAGGCAACUAGGACCGGGCCUAGUACAU | 63.6 | – | 133 | 127 | –
CAGUGAGAACGAAGGAGCGCUGAAUGAUGUGGACAUGAGGAUCACCCAUGUUAAGUCCAAUGGCAGGUAGGUCGCGUAACACUAG [Same State - Arginine B] | 14.1 | 15.8 | 11.9 | 12.7 | 15.8
UCGCCAUUGACGGCCGCCACUCAAUGGUCUUCUCUGAACAUAAUUAACAUGAGGAUCACCCAUGUGAGGACCGGGUCGGUUAGAC [theeternabot_exclusion_MS2_Trp_B_24] | 17.4 | – | 23.5 | 20.4 | –
UACAUAUGCCGAAGGAGCGUGAGAUGCAAAGCAUCAUUCCUCACAUGAGGAUCACCCAUGUCACAGGUAGGUCGCGGCAUAUGUU [ArgBX 3] | 94.3 | 90 | 115 | 117 | 96.9
GCCAUCGGCGAAAGCCGAUGGUAUACAGAAGGAGCGCACGAAAGUGCAGGUAGGUCGCUGAACAUGAGGAUCACCCAUGUAAUAA [#29 Same State - Arginine A] | 19.6 | 20.2 | 24.9 | 22.9 | 19.4
CCUGCGUUUCUUCUUUCGCAGGAGGAUGAUACCAGUAGGGAAACCUACCCUUGGCAGCAUGGGACAUGAGGAUCACCCAUGUGGA [SSThA NP+V+V2 #1] | 354 | 503 | 522 | 130 | 430
AAUACAUGAGGAUCACCCAUGUAAGCUGAAGGAGCGCUGGAAACAGCAGGUAGGUCGCAGCUGCGACCUUGGUGAUCUAGGUCGC [(M1)-(M2)-(Arg1)-(Arg2)-(A)'-(M)'-(A)''_Design7] | 17.5 | 36.6 | 35.8 | 46.7 | 24.3
UGUAUGUGAUUUGAUACCAGACCAGCGGGUGUUACUUGAGGAACACCCAAGUAGGUUUGGGUCCCUUGGCAGCAAAUCGCAUACU [SS Theo B #24 Ms9] | 452 | 39.2 | 309 | 1410 | 79
UGUCACUGUUUGGUUCAAUGAAGAAGAAUUCGAGGACCGGUACGGCCGCCACUCGCUAUGCAACAUGAGGAUCACCCAUGUAAAA [theeternabot_exclusion_MS2_Trp_A_31] | 13.4 | – | 17 | 17.3 | –
AAAACUCAUGGCUUAUAUCCGUGUCUCGAAGGAGCGUACAGCGGUACAGGUAGGUCGCGAGACAUGAGGAUCACCCAUGUGUAAA [XArg-A 20 V1&2 original #dotplot2>1] | 22.3 | 38.1 | 119 | 1.46 | 0.526
AUAUUUAACGGAAGGAGCGCGGAAUAAUAAGUGGGUAAACAUGAGGAUCACCCAUGUAAACCGCAGGUAGGUCGCCGAAUAAUAA [AstrosEXyARgB#4] | 71 | 89.4 | 115 | 86.1 | 68.4
AACAACUAGUCGGCCGCCACUCAUAAUACAUGAGGAUCACCCAUGUAUACUUGGUUUUUAUAUUUGAGGACCGGGACAGUUGCAU [JR_Nu_ExcTryptoB_Sub026] | 12.5 | – | 14.7 | 10.7 | –
UUGGGUUUGUGAAGGAGCGGGAAAGUUUUAUAGUGGAUCCUAACAUGAGGAUCACCCAUGUCCCAGGUAGGUCGCGCGGGUUUGG [12.R] | 60.7 | 182 | 182 | 152 | 107
GAGCUGAUGUAGGGUGGAUAUCCUUGAGAUACCAGUACAGAAAUGUACCCUUGGCAGCUCUUCCUUACAUGAGGAUCACCCAUGU [Ex Theophylline A 25] | 18.9 | – | 23.5 | – | 20.4
AGAAUAACACAUGAGGAUCACCCAUGUGAUACCAGCUAGGAAACUAGCCCUUGGCAGCACAUAAUCCUCAUGAAUGUGCUGAAUA [(M1)-(M2)-(T1)-(T2)-(M)'-(T)'_Design3_2/19/17] | 37.3 | – | 121 | – | 59.7
AGUGUUAUAACUGAUACCAGACUCUCAUGUUUACAUGAGGAUCACCCAUGUUAUUUCUUUGUCCCUUGGCAGCAGAAUUAACACA [JR_SSTheophyB_Sub010] | 152 | – | 175 | – | 215
GCCUCAUGUAGAAGGAGCGUCAGAAGCUACAGACAUGAGGAUCACCCAUGUUAGUUGAUCUGACAGGUAGGUCGCUACAGCAGGA [Arg B SS t7] | 26.7 | 37 | 44.9 | 41.1 | 34.9
UCGGUGCUCUACAUGAGGAUCACCCAUGUCCGAGGACCGGUACGGCCGCCACUCGCAAUCAAACAGACGUGGGCCAACUUUGCGU [Tiribeesqu] | 11 | – | 12.1 | 11 | –

Sequence | apparent KD of MS2 coat protein (input ligand: arginine 13.2 mM) [nM] | apparent KD of MS2 coat protein (input ligand: none) [nM] | apparent KD of MS2 coat protein [1] [nM] | apparent KD of MS2 coat protein [2] [nM] | apparent KD of MS2 coat protein [3] [nM]
AACGUGAACGUGGUAUACCCGUGUGCCGAAGGAGCGCCCGAAAGGGCAGGUAGGUCGCGGACGACAUGAGGAUCACCCAUGUUUG | 42 | 73.5 | 97.2 | 87.5 | 57.7
UGUAACAUGAGGAUCACCCAUGUGCACGAUACCAGCUUAUUGAUAGGCCCUUGGCAGCGUAUGCGGAAGCUGUAUAAUAUAUAUC [#27 SameState-TheophyllineA] | 10.3 | – | 18.6 | – | 10.8
ACGAACGAUAGUGAUACCAGACGUACAUGAGGAUCACCCAUGUUGUAAACAUGGUUAAUAGUCCCUUGGCAGCACGAUAAGUUCG [JR_ExcTheophyB_Sub003] | 104 | – | 530 | – | 802
CUAUAAGUAACUGAUACCAGUGUACUGACAUGAGGAUCACCCAUGUUGGGUUUUGUUGUACACCCUUGGCAGCAGAAUCUUGUAG [AstrosExyTheB#15] | 46.5 | – | 62.3 | – | 54
AGUAUUGGAAACAGUACUAGUGAUCCGGUCCGAGGACCGGUACGGCCGCCACUCGAAUUAAAUAAACAUGAGGAUCACCCAUGUA [Ex Tryptophan A 15] | 18.1 | – | 18.7 | 20.6 | –
UGUAUGUGAUCUGAUACCAGUCCAACUGGUAAAACCUGAGGAACACCCAGGUAAAAUUGGGACCCUUGGCAGCAGAUCGCAUACU | 99.5 | 246 | 147 | 23 | 264
AGCGACAUGCGUGAUACCAGCUACAUGAGGAUCACCCAUGUCAGUAGGAAACUACUGUGUAGCCCUUGGCAGCACAGUGCAUGUC [Exclusion - Theophylline B (Freestyle 26)] | 12.3 | 16.4 | 31.9 | 30.2 | 17.7
GGCCUAUGGCGCGAUACCAGCUUGAGUGUACUGGCCAGGUACAUGAGGAUCACCCAUGUAAGCCCUUGGCAGCGCGUCAUAGGCC [#1 Exclusion - Theophylline B Attempt #23 (HarryS)] | 8.91 | 9.95 | 17.9 | 32.2 | 9.74
AGUAUCAGUGGAAGGAGCGUCGCGACUGCCACAUGAGGAUCACCCAUGUCGCCUUGAGCGCGACAGGUAGGUCGCCACGGUAGGC [SS-ArgB2] | 29.1 | 301 | 213 | 499 | 289
AGAUGAGUCACGGCCGCCACUCACUACAGGUUCACCCUUGGUUAACAUGAGGAUCACCCAUGUGGGAGGACCGGGUGAUGAGCAU [XTryp B #4] | 18.5 | – | 32.7 | 25.6 | –
AACAUGAGGAUCACCCAUGUGUCCUCGAAACGAGGACCGGUACGGCCGCCACUCGAAAUAAGCUGUUGACGAAAAGUCAGCAGCA [Mat - Exclusion - Trytophan A - D20] | 128 | – | 300 | 345 | –
UGUAUGUGAUUUGAUACCAGACCAGCUGGUGUUAGAUGAGGAUCACCCAUCUAGGUUUGGGUCCCUUGGCAGCAAAUCGCAUACU [SS Theo B #24 Ms13] | 18 | 18 | 22.1 | 11.4 | 18
UUAAAGGCACCUCAUGGGACUAUAAACCCGCGAGGACCGGUACGGCCGCCACUCGAAUAUCAACAUGAGGAUCACCCAUGUGGUU [theeternabot_exclusion_MS2_Trp_A_6] | 16.2 | – | 32.3 | 29.6 | –
AUAACUGUCAAGGAAGGUGAUCCAGCAGAUACCAGCUAGGAAACUAGCCCUUGGCAGCUGCAACAUGAGGAUCACCCAUGUAAUA [(T)'-(M)'-(T1)-(T2)-(M1)-(M2)_Design9] | 61 | – | 135 | – | 59.3
AAUUCCUAACAUGAGGAUCACCCAUGUGAAGGAGCGCGGAAUAACGCAGGUAGGUCGCACAUGGAACCGCUGCGAUAGCAGCAAA [MAT - Exclusion Arginine A - Mod of Eli - D29] | 8.66 | 14.4 | 13.3 | 14 | 12.5
UCACGACGCAACGUGAGAUAAUGAACAGAAGGAGCGAGGAGAGCCUCAGGUAGGUCGCUGACAUGAGGAUCACCCAUGUAUUACA [Same State Arginine A GF6] | 63.8 | 82.8 | 84.2 | 80 | 65.2
GAUUAAACAUGAGGAUCACCCAUGUAUAUACGAGGACCGGUACGGCCGCCACUCGUAAACGAGUAUCCUCGAAUAAACAUGAUAA [AK 2.1 SS Trypt (A)] | 44 | – | 113 | 182 | –
GAUACCAUGAUCCUCCUGGUAUCGGCUGAUACCAGCCAGCUGACUGGCCCUUGGCAGCAGCAUACAUGAGGAUCACCCAUGUUAA [(T)''-(M)'-(T)'-(Theo)-(Ms2)_Design4] | 35.4 | – | 163 | – | 61
ACAUGAGGAUCACCCAUGUAUGAUGUUCCUCGAGGACCGGUACGGCCGCCACUCGAACGAGUGGCGCGCGAGCGCGCGCUCGCGC [aVa] | 14 | 15.6 | 27.2 | 17.3 | 15.2
